In article PMC6222848, “Spatial Overlap of Claudin- and Phosphatidylinositol Phosphate-Binding Sites on the First PDZ Domain of Zonula Occludens 1 Studied by NMR” (Molecules : A Journal of Synthetic Chemistry and Natural …, 2018):
Positions count from the first letter of the chain named.

What was measured:
[1] = biological target: T1, GST-tagged mouse ZO-1(PDZ1) (residues 18–110) (mouse, UniProt P39447 18-110); assay: SPR; BIACORE-3000; Trx-CLD3 peptide immobilized on a CM5 chip, PDZ domain as analyte (0 to 100 ug/mL), 20 uL/min; 10 mM HEPES pH 7.4, 150 mM NaCl, 3 mM EDTA, 0.005% Surfactant P20; KD by 'Affinity from steady-state'; no phytic acid; conditions: both partners purified
T1 construct: zonula occludens 1 (ZO-1), mouse, first PDZ domain, residues 18-110; The methods say that the GST fusion proteins were used for the SPR analysis; also called first PDZ domain of zonula occludens 1; wild-type; source: E. coli BL21 (DE3), purified (glutathione-Sepharose FF), dialyzed
T1 sequence (looked up): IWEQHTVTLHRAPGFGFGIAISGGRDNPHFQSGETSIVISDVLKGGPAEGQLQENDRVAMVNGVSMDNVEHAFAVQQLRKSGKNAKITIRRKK

[2] = biological target: T2, mouse ZO-1(PDZ1) Arg28 Ala-substituted mutant (mouse, UniProt P39447 18-110, Arg28 Ala-substituted); assay: as above; conditions: both partners purified
T2 construct: zonula occludens 1 (ZO-1), mouse, first PDZ domain, residues 18-110, with Arg28 changed to Ala; Made by mutagenesis of the whole expression plasmid of ZO-1(PDZ1); no cleavage of GST is described for the mutants; also called Arg28 mutation; source: purified with glutathione-Sepharose, dialyzed
T2 sequence (looked up): T1 sequence (looked up) with R11A

Kd [1]: 170 nM | binding result [2]: binds
B1: His6-tagged thioredoxin (Trx) fusion protein of mouse CLD-3 C-terminus (Trx-CLD3, residues 210–219) (domain or fragment, UniProt Q9Z0G9 210-219, looked up)
chain: GTAYDRKDYV
notes: claudin-3 (CLD-3), mouse, C-terminus, residues 210-219; also called Trx-CLD3 peptide; CLD-3 peptide; source: E. coli BL21 (DE3), purified (Ni2+-chelating-Sepharose), dialyzed
